Consider 4 molecules from patent publication US20140308271A1 (GLENMARK PHARMACEUTICALS S A, published 2014).

As usually defined, the Kd is the free concentration of one partner at which half of the binding sites on the other are occupied at equilibrium, for simple one-to-one binding. One may read the EC50 (read off the curve) as the concentration at which the effect is half-maximal.

Numbering of substitutions follows the chain as printed.

Assay [1] has as its target T1, recombinant human TL1A-his (processed secreted human TL1A with an N-terminal his-tag) (human, UniProt O95150 72-251).
T1 construct: also called recombinant histidine tagged human TL1A; histidine-tagged human TL1A
T1 sequence: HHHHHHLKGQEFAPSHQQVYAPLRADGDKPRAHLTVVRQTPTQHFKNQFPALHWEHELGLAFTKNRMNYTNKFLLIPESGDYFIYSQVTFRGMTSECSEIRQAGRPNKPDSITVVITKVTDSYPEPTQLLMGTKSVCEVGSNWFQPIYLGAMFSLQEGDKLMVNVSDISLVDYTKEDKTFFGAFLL
The experiment in a line: SPR (BIAcore 2000), antibody captured on protein-A, his-tagged human TL1A as analyte. As to the method: Kinetic binding affinity constants (KD) were measured on protein-A captured antibody using recombinant histidine tagged TL1A as analyte. Measurements were conducted on a BIAcore 2000 (GE Healthcare—BIAcore, GE Healthcare Europe GmbH, Glattbrugg, Switzerland) at room temperature, and analyzed with the BiaEvaluation software (BIAcore; v4.1. GE Healthcare Europe GmbH).
Following this capture step, the recombinant histidine tagged human TL1A was injected at different concentrations (1.25 to 125 nM) on the flow-path 1 and 2 (flow-path 1 being used as reference) at a 30 μl/min flow rate. After each binding event, surface was regenerated with glycine buffer pH 1.5 injected for 20 sec (30 μL/min).
Measurements (sensorgram: fc2-fc1) were best fitted with a 1:1 analyte model without mass transfer. To account for the experimental variations in protein-A captured antibody at the beginning of each measurement, the Rmax value was set to local in all fits. Dissociation times were of at least 300-600 seconds. Measurements were performed in duplicate and included zero-concentration samples for referencing. The Chi2 value represents the sum of squared differences between the experimental data and reference data at each point; while the plots of residuals indicate the difference between the experimental and reference data for each point in the fit. Both Chi2 and residual values were used to evaluate the quality of a fit between the experimental data and individual binding models.
(Surface plasmon resonance follows binding to a sensor surface in real time, without labels.)

Assay [2] deals with extracellular part of mouse (mus musculus) TL1A protein (mouse). Kind of assay: ELISA on coated extracellular part of TL1A (2 µg/mL), dose dilution of chimeric 5G6, HRP anti-human IgG. In general terms: In an ELISA, binding on a coated surface is turned into a signal by an enzyme label.
For assay [3], the target named is T2, extracellular part of human (homo sapiens) TL1A protein (human, UniProt O95150 57-251).
T2 construct: also called human TL1A
T2 sequence: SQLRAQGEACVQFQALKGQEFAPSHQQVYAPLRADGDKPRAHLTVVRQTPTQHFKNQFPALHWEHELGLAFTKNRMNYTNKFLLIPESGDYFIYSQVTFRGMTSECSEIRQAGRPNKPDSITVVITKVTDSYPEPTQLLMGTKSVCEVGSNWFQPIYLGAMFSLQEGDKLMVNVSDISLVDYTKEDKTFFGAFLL
The description is as above. How it is done:
(§1) The reactivity of the parental 5G6 antibody (produced as a chimeric antibody with Human Fc) on the extracellular part of TL1A from diverse species was tested by ELISA. The extracellular part of TL1A protein corresponding to human (homo sapiens), rat (ratus norvegicus), mouse (mus musculus) and cynomologus monkey (macaca fascicularis) sequences (SEQ ID NOS: 38, 39, 40 and 41, respectively) was immobilized on high binding 96-well plates (Costar, USA; distributor VWR AG, Nyon, Switzerland) overnight at a concentration of 2 μg/mL at 4° C. in PBS. Plates were blocked with 2% BSA albumin (BSA, Sigma-Aldrich Chemie, Buchs, Switzerland) at RT for one hour. The blocking solution was removed and a dose dilution of 5G6 antibody was applied to the plates. Plates were incubated at RT for 60 minutes, washed six times with PBS 0.01% Tween-20 and the TMB substrate (Bio-rad Laboratories AG, Reinach, Switzerland) was added to the plates. […] The plates were read for absorbance at 450 nm by a microplate reader (Biotek, USA; distributor: WITTEC AG, Littau, Switzerland).

For assay [4], the target named is T3, extracellular part of rat (ratus norvegicus) TL1A protein (rat, UniProt Q8K3Y7 61-252).
T3 construct: also called rat TL1A
T3 sequence: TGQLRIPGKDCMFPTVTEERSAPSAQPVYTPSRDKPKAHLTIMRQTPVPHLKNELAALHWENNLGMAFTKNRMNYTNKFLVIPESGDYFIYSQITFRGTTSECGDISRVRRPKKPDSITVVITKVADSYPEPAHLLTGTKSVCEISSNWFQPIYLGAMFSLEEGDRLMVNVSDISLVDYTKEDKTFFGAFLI
Described as above. How it is done:
as §1

Assay [5] addresses T4, extracellular part of cynomologus monkey (macaca fascicularis) TL1A protein (cynomolgus monkey (macaca fascicularis), UniProt O95150 57-251 (human entry)).
T4 construct: also called cyno TL1A; cynomologus monkey TL1A
T4 chain: T2 sequence with F13L, A15D, F54L, I93V
The description is as above. As to the method: as §1

B1: 5G6 chimeric antibody (murine 5G6 variable domains fused to human IgG1 heavy chain constant domains and a human kappa constant domain) (antibody, V domains shown)
VH: QVQLQQPGSVLVRPGASVKVSCKASGYTFTSSWMHWAKQRPGQGLEWIGEIHPNSGGTNYNEKFKGKATLTVDTSSSTAYVDLSSLTSEDSAVYYCARGDYYGYVSWFAYWGQGTLVTVSS
VL: DIQMNQSPSSLSASLGDTITITCHASQNINVLLSWYQQKPGNIPKLLIYKASNLHTGVPSRFSGSGSGTGFTFTISSLQPEDIATYYCQQGQSYPYTFGGGTKLEIKR
notes: Human IGHG1 / kappa chimera; also called Chimera; parental 5G6
On to B1, for which the Kd in assay [1] stood at 0.728 nM. Moreover, the concentration for a half-maximal effect (EC50 (read off the curve)) in assay [2] was 0.02 µg/mL; in assay [3] it was roughly 3 ng/mL; in assay [4] it was roughly 8 ng/mL; in assay [5] it was roughly 3 ng/mL.

B2: VH4/VL1 humanized 5G6 antibody (antibody, human IgG1, kappa, V domains shown)
VH: QVQLVQSGAEVKKPGASVKVSCKASGYTFTSSWMHWARQAPGQGLEWIGEIHPNSGGTNYAQKFQGRVTMTVDTSISTAYMELSRLRSDDTAVYYCARGDYYGYVSWFAYWGQGTLVTVSS
VL: B1 VL with N5T, L15V, T18R, I19V, H24Q, S34N, N42K, I43A, G70D, G100Q
As for B2, the dissociation constant Kd in assay [1] amounted to 0.681 nM.

B3: VH3/VL1 humanized 5G6 antibody (antibody, human IgG1, kappa, V domains shown)
VH: B2 VH with V68A
VL: B1 VL with N5T, L15V, T18R, I19V, H24Q, S34N, N42K, I43A, G70D, G100Q
On to B3, for which the dissociation constant (Kd) in assay [1] stood at 0.249 nM.

B4: VH2/VL2 humanized 5G6 antibody (antibody, human IgG1, kappa, V domains shown)
VH: B2 VH with V68A, M70L, I76S
VL: B1 VL with L15V, T18R, I19V, H24Q, N42K, I43A, G70D, G100Q
For the molecule B4, in assay [1], the Kd was determined as 0.857 nM.
